The source of these data is patent US20110257092A1 (INDIANA UNIVERSITY RESEARCH AND TECHNOLOGY, published 2011).

Ends that are not written are not given here. Some results are limits rather than exact numbers.

This test deals with glucagon receptor (UniProt P47871 26-477, limits assumed). Briefly: cell-based or functional assay.
Sequence of glucagon receptor (P47871 26-477 limits assumed): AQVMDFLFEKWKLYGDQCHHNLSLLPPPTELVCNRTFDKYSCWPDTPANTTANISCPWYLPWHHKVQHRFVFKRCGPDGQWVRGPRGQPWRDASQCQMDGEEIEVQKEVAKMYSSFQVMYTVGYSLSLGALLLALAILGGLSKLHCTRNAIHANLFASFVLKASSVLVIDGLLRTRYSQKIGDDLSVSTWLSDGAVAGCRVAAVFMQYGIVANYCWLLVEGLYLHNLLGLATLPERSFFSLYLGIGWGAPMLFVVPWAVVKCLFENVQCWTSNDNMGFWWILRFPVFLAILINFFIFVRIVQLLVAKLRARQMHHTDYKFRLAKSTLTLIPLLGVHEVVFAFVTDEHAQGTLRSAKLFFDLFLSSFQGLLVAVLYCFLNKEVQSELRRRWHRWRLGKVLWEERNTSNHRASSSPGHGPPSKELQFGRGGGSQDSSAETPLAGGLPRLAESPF

B1: Peptide V (peptide)
peptide: HSEGTFTSDYSKYLDEQAAKEFIC(PEG 20 kDa)WLMNT
modifications: not fully specified (C-terminus)
B1 had a glucagon agonism above 10 fold reduction.
